This is an account of results in patent US9766250B2, “Method for detecting protein-protein interaction” (MEDICAL & BIOLOGICAL LABORATORIES CO., LTD., priority 2011, dated 2017).

The target of test [1] is T1, mTOR(FRB) and FKBP12 interaction (Homo sapiens, UniProt P42345+P62942).
T1 construct: region having the 2025th to 2114th amino acids of the mTOR protein; expressed in transfected cells; host or cells: HeLaS3; 293T for some combinations with FKBP12-Tankyrase(SAM)
In words: Degree of fluorescent focus (assembly) formation after rapamycin, fluorescent proteins fused to mTOR(FRB) (Example 8, Table 1). Format: cell-based. Details: key to degree of fluorescent focus formation, Tankyrase (SAM): +++: fluorescent foci were observed in 50% or more of the HeLaS3 cells; ++: fluorescent foci were observed in 50% or less of the HeLaS3 cells; +: fluorescent foci were observed in 293T cells expressing a larger amount of proteins than that in the HeLaS3 cells. Conditions: fluorescent protein fused to mTOR(FRB); for degree of fluorescent focus formation, DGKd (SAM): with FKBP12-DGKd(SAM); for degree of fluorescent focus formation, TEL (SAM): with FKBP12-TEL(SAM); for degree of fluorescent focus formation, Tankyrase (SAM): with FKBP12-Tankyrase(SAM), some combinations in 293T cells; for degree of fluorescent focus formation, P62 (PB1): with p62(PB1)-FKBP12. The procedure: Note that plasmid DNAs encoding fusion proteins composed of mTOR(FRB) and the corresponding fluorescent proteins were prepared as appropriate by the same method as that described in Example 2. Moreover, regarding the combinations of FKBP12-Tankyrase(SAM) with mKO2, mKeima, mMiCy1, mKO1, MiCy1, and TGuv, the test was conducted by introducing the genes into 293T cells. Specifically, the 293T cells were cultured in DMEM High glucose (manufactured by SIGMA ALDRICH CO.) containing 10% FBS (manufactured by Equitech-Bio Inc.). Moreover, the 293T cells were seeded onto an 8-well chamber (manufactured by Nunc A/S) 6 hours before the plasmid DNAs were introduced. Further, at the time of the transfection, 200 ng of the plasmid DNA encoding FKBP12-Tankyrase(SAM) and 200 ng of one of the plasmid DNAs encoding fusion proteins composed of the fluorescent proteins and mTOR(FRB) were diluted with 30 μl of OptiMEM (manufactured by Life Technologies Corporation), and 1.2 μl of TurboFect Transfection Reagent (manufactured by Thermo Fisher Scientific Inc.) was added thereto and stirred. Then, the resultant was further mixed with 300 μl of the culture solution, subsequently added to the 293T cells, and observed 48 hours later.

Test [2] addresses T1, mTOR(FRB) and FKBP12 interaction. In words: Degree of fluorescent focus (assembly) formation after rapamycin with TFG(PB1) (Example 9, Table 2). Details: key: ++: fluorescent foci were observed in 50% or less of the HeLaS3 cells; +: fluorescent foci were observed in the 293T cells expressing a larger amount of proteins than that in the HeLaS3 cells. To be noted: fluorescent protein fused to mTOR(FRB), KO1 and dAG (AB) in 293T cells. The test is classed as cell-based.

T1 sequence (P42345 2025-2114): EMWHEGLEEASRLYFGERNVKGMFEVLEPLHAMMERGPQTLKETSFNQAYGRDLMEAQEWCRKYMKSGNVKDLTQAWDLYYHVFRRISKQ
T1 sequence (P62942 whole entry): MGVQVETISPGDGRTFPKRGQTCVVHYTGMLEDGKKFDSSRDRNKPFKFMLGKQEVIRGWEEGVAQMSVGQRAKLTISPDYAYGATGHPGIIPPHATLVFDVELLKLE

B1: monomericMidoriishi-Cyan1 (protein)
chain: MVSYSKQGIAQEMRTKYRMEGSVNGHEFTIEGVGTGNPYEGKQTSELVIIKPKGKPLPFSFDILSTVFQYGNRCFTKYPADMPDYFKQAFPDGMSYERSFLFEDGGVATASWSIRLEGNCFIHNSIYHGTNFPADGPVMKKQTIGWDKSSEKMSVAKEVLRGDVTQFLLLEGGGYQRCQLHSTYKTEKPVAMPPSHVVEHQIVRTDLGQTAKGFKVKLEEHAEAHVNPLKVK
modifications: Synthetic sequence mMiCy1
Regarding B1, in test [1], the “degree of fluorescent focus formation, DGKd (SAM)” value (“degree … DGKd (SAM)” for short) was “+++ (fluorescent foci were observed in 50% or more of the HeLaS3 cells)”; the “degree of fluorescent focus formation, TEL (SAM)” value (“degree … TEL (SAM)” for short) is on record as “+++ (fluorescent foci were observed in 50% or more of the HeLaS3 cells)”; the “degree of fluorescent focus formation, Tankyrase (SAM)” value (“degree … Tankyrase (SAM)” below) is “+”; the “degree of fluorescent focus formation, P62 (PB1)” value (“degree … P62 (PB1)” for short) is “+++ (fluorescent foci were observed in 50% or more of the HeLaS3 cells)”.

B2: TGuv: fluorescent protein capable of homotetramerization, SEQ ID NO: 147 (protein)
chain: MVSVIGKDMIMKLHVEGCVNGHSFKIEGDGKGKPYEGDQTVKLRVTEGGPLPFAFDILSASMCYGNRCFTKYPAEIPDIFKQTFPEGYSWERALTFEDGGFASSSSHISVRGNCFFYDVKYHGVNFPSNGPIMQRKTIGWQPSTEKLYIGEGTLKGDDTMFLKLEGGGTHKCHVLTTYKTKKDVQMPDSHFIDHRLLTSHLDKECNNVELREHAVARNSSLPSR
modifications: Synthetic sequence TGuv
B2: in test [1], the “degree … DGKd (SAM)” value is listed as “+++ (fluorescent foci were observed in 50% or more of the HeLaS3 cells)”; the “degree … TEL (SAM)” value is given as “+++ (fluorescent foci were observed in 50% or more of the HeLaS3 cells)”; the “degree … Tankyrase (SAM)” value was “+”; the “degree … P62 (PB1)” value is “+++ (fluorescent foci were observed in 50% or more of the HeLaS3 cells)”.

B3: Momiji: fluorescent protein capable of homotetramerization, SEQ ID NO: 149 (protein)
chain: MVSVIKDEMKVNLRMEGSVNGHDFVIDGLGSGKPKEGTQTIELKVVKGGPLPFAYDILTTAFHYGNRVFAKYPKDIPNYFEQSFPEGYSWERSMIFEDGGICIARNDITMDGGTFYNKVRFYGVNFPPNGPVMQKKTQKWEQSTEKMYARDGVLTGDINMALLLKGGGHYRCDFRTTYKAKEKGVKLPGYHFIDHCIEILSHRNDYNNVTLFEHAVARSGLQDKEKQQQ
modifications: Synthetic sequence Momiji
As for B3, in test [1], the “degree … DGKd (SAM)” value is “+++ (fluorescent foci were observed in 50% or more of the HeLaS3 cells)”; the “degree … TEL (SAM)” value was “+++ (fluorescent foci were observed in 50% or more of the HeLaS3 cells)”; the “degree … Tankyrase (SAM)” value was “+++ (fluorescent foci were observed in 50% or more of the HeLaS3 cells)”; the “degree … P62 (PB1)” value is listed as “+++ (fluorescent foci were observed in 50% or more of the HeLaS3 cells)”. Besides, the “degree of fluorescent focus formation, TFG (PB1)” value (“degree … TFG (PB1)” below) in test [2] was “++ (fluorescent foci were observed in 50% or less of the HeLaS3 cells)”.

B4: dimeric Azami-Green (AB) (protein)
chain: MVSVIKPEMKIKLCMRGTVNGHNFVIEGEGKGNPYEGTQILDLNVTEGAPLPFAYDILTTVFQYGNRAFTKYPADIQDYFKQTFPEGYHWERSMTYEDQGICTATSNISMRGDCFFYDIRFDGVNFPPNGPVMQKKTLKWEPSTEKMYVRDGVLKGDVNMALLLEGGGHYRCDFKTTYKAKKDVRLPDAHKVDHRIEILKHDKDYNKVKLYENAVARYSMLPSQAK
modifications: Synthetic sequence dAG(AB)
With B4, in test [1], the “degree … DGKd (SAM)” value is recorded as “+++ (fluorescent foci were observed in 50% or more of the HeLaS3 cells)”; the “degree … TEL (SAM)” value is listed as “+++ (fluorescent foci were observed in 50% or more of the HeLaS3 cells)”; the “degree … Tankyrase (SAM)” value is recorded as “++ (fluorescent foci were observed in 50% or less of the HeLaS3 cells)”; the “degree … P62 (PB1)” value is given as “+++ (fluorescent foci were observed in 50% or more of the HeLaS3 cells)”. In test [2], the “degree … TFG (PB1)” value is recorded as “+”.

B5: dimeric Azami-Green (AC) (protein)
chain: MVSVIKPEMKIKLCMRGTVNGHNFVIEGEGKGNPYEGTQILDLNVTEGAPLPFAYDILTTVFQYGNRAFTKYPADIQDYFKQTFPEGYHWERSMTYEDQGICTATSNISMRGDCFFYDIRFDGTNFPPNGPVMQKKTLKWEPSTEKMYVRDGVLKGDVNMALLLEGGGHYRCDFKTTYKAKKDVRLPDYHFVDHRIEILKHDKDYNKVKLYENAVARYSMLPSQAK
modifications: Synthetic sequence dAG(AC)
Turning to B5, in test [1], the “degree … DGKd (SAM)” value was “+++ (fluorescent foci were observed in 50% or more of the HeLaS3 cells)”; the “degree … TEL (SAM)” value was “+++ (fluorescent foci were observed in 50% or more of the HeLaS3 cells)”; the “degree … Tankyrase (SAM)” value was “++ (fluorescent foci were observed in 50% or less of the HeLaS3 cells)”; the “degree … P62 (PB1)” value is “+++ (fluorescent foci were observed in 50% or more of the HeLaS3 cells)”. In addition, the “degree … TFG (PB1)” value in test [2] is on record as “++ (fluorescent foci were observed in 50% or less of the HeLaS3 cells)”.

B6: Kusabira-Cyan1 (protein)
chain: MVSVIKPEMKMRYYMDGSVNGHEFTVEGEGTGRPYEGKHKITLDVTKGGPLPFAFDLLSTVFSYGNRALTKYPDDIPDYFKQCFPGGYSWERKFEFEDGGLAIAKAEISLKGNCFEHKSTIEGTFPDSSPIMQNKTLGWEPSTEKMTVRDGSMKGDDAAYLKLVGGGNHKCYFTTTYTAKKKIPNLPGSHFIGHRISSVVEGTKIKVMEDAIAHLYPFNGS
modifications: Synthetic sequence KCy1
As for B6, in test [1], the “degree … DGKd (SAM)” value was “+++ (fluorescent foci were observed in 50% or more of the HeLaS3 cells)”; the “degree … TEL (SAM)” value is “+++ (fluorescent foci were observed in 50% or more of the HeLaS3 cells)”; the “degree … Tankyrase (SAM)” value was “++ (fluorescent foci were observed in 50% or less of the HeLaS3 cells)”; the “degree … P62 (PB1)” value is recorded as “+++ (fluorescent foci were observed in 50% or more of the HeLaS3 cells)”.

B7: COR3.01: fluorescent protein capable of homotetramerization, SEQ ID NO: 151 (protein)
chain: MALSKHGLTKNMTTKYRMEGCVDGHKFVITGDGIGDPFEGKQTSIDLCVVEGGPLPFSEDILSTVFDYGNRVFTKYPQDLVDYFKNSCPAGYTWQRSFLFEDGAVCTASADIRVSVEENCFYHESKFHGVNFPADGPVMKKMTTNWEPSCEKITPILNEGILKGDVTMFLLLKDGGRYRCQFDTVYKAKADAKKMPEWHFIQHELTREDRSDAKHQKWRLVENAIAYRSTLP
modifications: Synthetic sequence COR3.01
As to B7, in test [1], the “degree … DGKd (SAM)” value is on record as “+++ (fluorescent foci were observed in 50% or more of the HeLaS3 cells)”; the “degree … TEL (SAM)” value is recorded as “+++ (fluorescent foci were observed in 50% or more of the HeLaS3 cells)”; the “degree … Tankyrase (SAM)” value is listed as “+++ (fluorescent foci were observed in 50% or more of the HeLaS3 cells)”; the “degree … P62 (PB1)” value was “+++ (fluorescent foci were observed in 50% or more of the HeLaS3 cells)”. Further, in test [2], the “degree … TFG (PB1)” value is given as “++ (fluorescent foci were observed in 50% or less of the HeLaS3 cells)”.

B8: monomeric Kusabira-Orange 2 (protein)
chain: MVSVIKPEMKMRYYMDGSVNGHEFTIEGEGTGRPYEGHQEMTLRVTMAEGGPMPFAFDLVSHVFCYGHRVFTKYPEEIPDYFKQAFPEGLSWERSLEFEDGGSASVSAHISLRGNTFYHKSKFTGVNFPADGPIMQNQSVDWEPSTEKITASDGVLKGDVTMYLKLEGGGNHKCQMKTTYKAAKEILEMPGDHYIGHRLVRKTEGNITEQVEDAVAHS
modifications: Synethetic sequence of monomeric version pf KO(Kusabira-Orange)
Regarding B8, in test [1], the “degree … DGKd (SAM)” value was “+++ (fluorescent foci were observed in 50% or more of the HeLaS3 cells)”; the “degree … TEL (SAM)” value is on record as “++ (fluorescent foci were observed in 50% or less of the HeLaS3 cells)”; the “degree … Tankyrase (SAM)” value is on record as “+”; the “degree … P62 (PB1)” value is “+++ (fluorescent foci were observed in 50% or more of the HeLaS3 cells)”.
